Consider one protein from PMC5498496.

A short description of data set [1]: eptifibatide-induced mAb binding, flow cytometry. Particulars: glycan lost; control: wild-type β3 with αIIb.
Data set [2] can be described thus: surface expression by mAbs 10E5, AP2, AP3, flow cytometry. Conditions: glycan lost; control: wild-type αIIbβ3.

B1: integrin β3 subunit: β3-N559Q (protein)
parent chain: MRARPRPRPLWATVLALGALAGVGVGGPNICTTRGVSSCQQCLAVSPMCAWCSDEALPLGSPRCDLKENLLKDNCAPESIEFPVSEARVLEDRPLSDKGSGDSSQVTQVSPQRIALRLRPDDSKNFSIQVRQVEDYPVDIYYLMDLSYSMKDDLWSIQNLGTKLATQMRKLTSNLRIGFGAFVDKPVSPYMYISPPEALENPCYDMKTTCLPMFGYKHVLTLTDQVTRFNEEVKKQSVSRNRDAPEGGFDAIMQATVCDEKIGWRNDASHLLVFTTDAKTHIALDGRLAGIVQPNDGQCHVGSDNHYSASTTMDYPSLGLMTEKLSQKNINLIFAVTENVVNLYQNYSELIPGTTVGVLSMDSSNVLQLIVDAYGKIRSKVELEVRDLPEELSLSFNATCLNNEVIPGLKSCMGLKIGDTVSFSIEAKVRGCPQEKEKSFTIKPVGFKDSLIVQVTFDCDCACQAQAEPNSHRCNNGNGTFECGVCRCGPGWLGSQCECSEEDYRPSQQDECSPREGQPVCSQRGECLCGQCVCHSSDFGKITGKYCECDDFSCVRYKGEMCSGHGQCSCGDCLCDSDWTGYYCNCTTRTDTCMSSNGLLCSGRGKCECGSCVCIQPGSYGDTCEKCPTCPDACTFKKECVECKKFDRGALHDENTCNRYCRDEIESVKELKDTGKDAVNCTYKNEDDCVVRFQYYEDSSGKSILYVVEEPECPKGPDILVVLLSVMGAILLIGLAALLIWKLLITIHDRKEFAKFEEERARAKWDTANNPLYKEATSTFTNITYRGT
With B1, the structure_or_conformation result in data set [1] is recorded as “decreases”. The expression_or_secretion result in data set [2] is recorded as “no change”.
